Measured values taken from paper PMC10702856 (Antibody Therapeutics, 2023).

B1: ADAH15 (VHH)
VHH: QVQLQESGGGLVQAGGSLRLSCAASGTTYLAANMGWFRQAPGKEREFVAAITFFHNPTVYYADSVKGRFTISRDNAKNTVYLQMNSLKPEDTAVYYCAATVLVRDRIHFSHSIGIRYWGQGTQVTVSS
B2: ADAH14 (VHH)
VHH: QVQLQESGGGLVQAGGSLRLSCAASGSYFFHALMGWFRQAPVKEREFVASITAVPGATYYRRCTDSVKGRFTISRDNAKNTVYLQMNSLKPEDTAVYYCALATHSNRHTPITYWGQGTQVTVSS

Tests used:
[1] = molecular target: SARS-CoV-2 S receptor binding domain, Ancestral (SARS-CoV-2, Ancestral strain, UniProt P0DTC2)
[2] = molecular target: ADDoCoV (ADDomer-COVID-19 vaccine) nanoparticle (human adenovirus serotype Ad3 | …, UniProt P0DTC2)

Binder	binding result [1]	binding result [2]
B1	binds	binds
B2	binds	binds
